# Measurements: patent US20060041111A1 (published 2006)
# B1: GST-Crk-N terminal SH3 domain (other, UniProt P46108 132-192, looked up)
# chain: EEAEYVRALFDFNGNDEEDLPFKKGDILRIRDKPEEQWWNAEDSEGKRGMIPVPYVEKYRP
# notes: domain: N terminal SH3 domain; GST fusion on beads for the pull-down; also called adaptor protein Crk; not shown: glutathione S-transferase (GST) fusion partner
# B2: SH3 domain of Crk-C terminus (other, UniProt P46108 235-296, looked up)
# chain: NGPIYARVIQKRVPNAYDKTALALEVGELVKVTKINVSGQWEGECNGKRGHFPFTHVRLLDQ
# notes: domain: SH3 domain of Crk-C terminus
# B3: DOS-SSB (alternatively spliced human DOS protein of 1928 amino acids, without Src SH3 domain binding site), epitope tagged (other, not shown: small tags and cut ends)
# chain: MWIPTEHEKYGVVIASFRGTVPYGLSLEIGDTVQILEKCDGWYRGFALKNPNIKGIFPSSYVHLKNACVKNKGQFEMVIPTEDSVITEMTSTLRDWGTMWKQLYVRNEGDLFHRLWHIMNEILDLRRQVLVGHLTHDRMKDVKRHITARLDWGNEQLGLDLVPRKEYAMVDPEDISITELYRLMEHRHRKKDTPVQASSHHLFVQMKSLMCSNLGEELEVIFSLFDSKENRPISERFFLRLNRNGLPKAPDKPERHCSLFVDLGSSELRKDIYITVHIIRIGRMGAGEKKNACSVQYRRPFGCAVLSIADLLTGETKDDLILKVYMCNTESEWYQIHENIIKKLNARYNLTGSNAGLAVSLQLLHGDIEQIRREYSSVFSHGVSITRKLGFSNIIMPGEMRNDLYITIERGEFEKGGKSVARNVEVTMFIVDSSGQTLKDFISFGSGEPPASEYHSFVLYHNNSPRWSELLKLPIPVDKFRGAHIRFEFRHCSTKEKGEKKLFGFSFVPLMQEDGRTLPDGTHELIVHKCEENTNLQDTTRYLKLPFSKGIFLGNNNQAMKATKESFCITSFLCSTKLTQNGDMLDLLKWRTHPDKITGCLSKLKEIDGSEIVKFLQDTLDTLFGILDENSQKYGSKVFDSLVHIINLLQDSKFHHFKPVMDTYIESHFAGALAYRDLIKVLKWYVDRITEAERQEHIQEVLKAQEYIFKYIVQSRRLFSLATGGQNEEEFRCCIQELLMSVRFFLSQESKGSGALSQSQAVFLSSFPAVYSELLKLFDVREVANLVQDTLGSLPTILHVDDSLQAIKLQCIGKTVESQLYTNPDSRYILLPVVLHHLHIHLQEQKDLIMCARILSNVFCLIKKNSSEKSVLEEIDVIVASLLDILLRTILEITSRPQPSSSAMRFQFQDVTGEFVACLLSLLRQMTDRHYQQLLDSFNTKEELRDFLLQIFTVFRILIRPEMFPKDWTVMRLVANNVIITTVLYLSDALRKNFLNENFDYKIWDSYFYLAVIFINQLCLQLEMFTPSKKKKVLEKYGDMRVTMGCEIFSMWQNLGEHKLHFIPALIGPFLEVTLIPQPGLRNVMIPIFHDMMDWEQRRSGNFKQVEAKLIDKLDSLMSEGKGDETYRELFNSILLKKIERETWRESGVSLIATVTRLMERLLDYRDCMKMGEVDGKKIGCTVSLLNFYKTELNKEEMYIRYIHKLYDLHLKAQNFTEAAYTLLLYDELLEWSDRPLREFLTYPMQTEWQRKEHLHLTIIQNFDRGKCWENGIILCRKIAEQYESYYDYRNLSKMRMMEASLYDKIMDQQRLEPEFFRVGFYGKKFPFFLRNKEFVCRGHDYERLEAFQQRMLNEFPHAIAMQHANQPDETIFQAEAQYLQIYAVTPIPESQEVLQREGVPDNIKSFYKVNHIWKFRYDRPFHKGTKDKENEFKSLWVERTSLYLVQSLPGISRWFEVEKREVVEMSPLENAIEVLENKNQQLKTLISQCQTRQMQNINPLTMCLNGVIDAAVNGGVSRYQEAFFVKEYILSHPEDGEKIARLRELMLEQAQILEFGLAVHEKFVPQDMRPLHKKLVDQFFVMKSSLGIQEFSACMQASPVHFPNGSPRVCRNSAPASVSPDGTRVIPRRSPLSYPAVNRYSSSSLSSQASAEVSNITGQSESSDEVFNMQPSPSTSSLSSTHSASPNVTSSAPSSARASPLLSDKHKHSRENSCLSPRERPCSAIYPTPVEPSQRMLFNHIGDGALPRSDPNLSAPEKASPARHTTSVSPSPAGRSPLKGSVQSFTPSPVEYHSPGLISNSPVLSGSYSSGISSLSRCSTSETSGFENQVNEQSAPLPVPVPVPVPSYGGEEPVRKESKTPPPYSVYERTLRRPVPLPHSLSIPVTSEPPALPPKPLAARSSHLENGARRTDPGPRPRPLPRKVSQL
# notes: Used as lysate of transfected cells
# Tests used:
# [1] = biological target: T1, DOS+SSB P>L (DOS+SSB with the proline to leucine mutation at amino acid 1718), epitope tagged (human, UniProt Q8N1I0 1-1966); assay: GST pull-down, lysate in SDS containing RIPA buffer
# T1 construct: Used as lysate of transfected cells; also called DOS+SSB with proline mutation; DOS with the proline mutation
# Protocol: (§1) In transient expression studies, with epitope tagged DOS constructs in both 293T cell and COS cells, a protein of the expected size is readily detected after cell lysis with buffers containing detergents, such as RIPA.
# (§2) After incubating epitope tagged DOS lysates in SDS containing RIPA buffer with beads carrying GST-Crk-N terminal SH3 domain, DOS+SSB and DOS−SSB was “pulled down”. […] No binding to DOS−SSB was observed. […] The proline rich, C terminus of DOS engages with Src and Crk and the loss of Crk binding is seen in human cancer. Furthermore, no binding to SH3 domain of Abl and Crk-C terminus was observed.
# [2] = biological target: T2, DOS+SSB (human DOS protein of 1966 amino acids, with Src SH3 domain binding site), epitope tagged (human, UniProt Q8N1I0 1-1966); assay: pull-down with SH3 domains
# T2 construct: Full-length isoform cloned in pcDNA3.1, transiently expressed in 293T or COS cells and used as cell lysate in RIPA buffer; also called DOCK 3; Deleted in Osteosarcoma
# Protocol: as §1, §2
# [3] = biological target: GST-Src SH3 domain (UniProt P12931 84-145); assay: GST pull-down, lysate in SDS containing RIPA buffer
# Protocol: as §1, §2
binder,measurement,setting,value
B1,binding result,[1],no binding
B2,binding result,[2],no binding
B3,binding result,[3],no binding
